Results reported in PMC10624354.

Target: T1, PIF4 (Arabidopsis thaliana, UniProt Q8W2F3 1-430)
T1 sequence: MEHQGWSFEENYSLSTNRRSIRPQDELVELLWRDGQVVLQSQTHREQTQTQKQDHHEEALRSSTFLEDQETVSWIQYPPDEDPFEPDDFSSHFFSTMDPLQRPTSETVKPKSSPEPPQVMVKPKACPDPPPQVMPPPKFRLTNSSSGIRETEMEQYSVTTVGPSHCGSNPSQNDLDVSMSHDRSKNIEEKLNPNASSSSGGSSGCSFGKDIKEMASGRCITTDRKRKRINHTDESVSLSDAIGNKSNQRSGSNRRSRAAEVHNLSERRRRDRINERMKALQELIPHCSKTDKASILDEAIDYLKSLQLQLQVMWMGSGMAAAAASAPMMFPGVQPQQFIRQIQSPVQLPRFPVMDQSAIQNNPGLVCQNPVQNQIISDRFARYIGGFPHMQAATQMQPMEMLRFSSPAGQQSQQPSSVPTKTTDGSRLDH
Assay: EMSA

B1: YUC8pro (WT) (dsDNA)
DNA 1: TCTTTTTCTTCCCCACGTGGCTTCCTCTCGTTGGTCCCACAA
DNA 2: TTGTGGGACCAACGAGAGGAAGCCACGTGGGGAAGAAAAAGA
binding result: binds
